Results as given in US20120316071A1 (published 2012).

Key:
[1] = target: T1, Recombinant Human DLL4 (delta-like protein 4) (human, UniProt Q9NR61 27-524); test: ECL (MSD) multispot binding assay, immobilized DLL4, 10 nM Fab, signal over blank
T1 construct: Bought recombinant protein (R&D Systems Cat#1506-D4/CF); also called rHuman DLL4; Delta-like 4

[2] = target: T1, Recombinant Human DLL4 (delta-like …); test: ELISA on plate-coated DLL4, absorbance at 450 nm, signal minus noise
[3] = target: T2, Recombinant Human DLL4 (R&D Systems Cat#1506-D4/CF) (human, UniProt Q9NR61 27-529); test: 96-well plate ECL (MSD) assay, DLL4 coated on plate, Fab at 0.04 µM; ECL signal on DLL4 over signal on blank well
T2 construct: Bought recombinant protein; also called rHuman DLL4; delta-like protein 4

| Binder | Signal/Blank [10 nM Fab] [1] | ELISA (Signal-Noise) [2] | Signal/Noise [3] |
| --- | --- | --- | --- |
| Fab VH1-46_IGHD6-6*01_IGHJ1*01 S102A/S103P/S104F/H111F S84Q & L6_IGKJ1*01 (Fab, V domains shown, Tested as Fab expressed in E. coli; also called APFF S84Q) VH: QVQLVQSGAEVKKPGASVKVSCKASGYTFTSYYMHWVRQAPGQGLEWMGIINPSGGSTSYAQKFQGRVTMTRDTSTSTVYMELQSLRSEDTAVYYCAREEYAPFSAEYFQFWGQGTLVTVSS VL: not shown | 413 | 0.39 | – |
| Fab VH1-46_IGHD6-6*01_IGHJ1*01 S102A & L6_IGKJ1*01 (Fab, V domains shown, Heavy chain CDR3 alanine mutant of the parental Fab; Fab format as the parent (CH1 with His6/Flag tags, kappa CL)) VH: QVQLVQSGAEVKKPGASVKVSCKASGYTFTSYYMHWVRQAPGQGLEWMGIINPSGGSTSYAQKFQGRVTMTRDTSTSTVYMELSSLRSEDTAVYYCAREEYASSSAEYFQHWGQGTLVTVSS VL: not shown | – | – | 5.6 |
| Fab VH1-46_IGHD6-6*01_IGHJ1*01 S102A/S103P/S104F/H111F S84R & L6_IGKJ1*01 (Fab, V domains shown, Tested as Fab expressed in E. coli; also called APFF S84R) VH: QVQLVQSGAEVKKPGASVKVSCKASGYTFTSYYMHWVRQAPGQGLEWMGIINPSGGSTSYAQKFQGRVTMTRDTSTSTVYMELRSLRSEDTAVYYCAREEYAPFSAEYFQFWGQGTLVTVSS VL: not shown | 433 | 0.26 | – |
| Fab VH1-46_IGHD6-6*01_IGHJ1*01 S102A/S103P/S104F/H111F S84K & L6_IGKJ1*01 (Fab, V domains shown, Tested as Fab expressed in E. coli; also called APFF S84K) VH: QVQLVQSGAEVKKPGASVKVSCKASGYTFTSYYMHWVRQAPGQGLEWMGIINPSGGSTSYAQKFQGRVTMTRDTSTSTVYMELKSLRSEDTAVYYCAREEYAPFSAEYFQFWGQGTLVTVSS VL: not shown | 448 | 0.29 | – |
| Fab VH1-46_IGHD6-6*01_IGHJ1*01 S102A/S103P/S104F/H111F S84N & L6_IGKJ1*01 (Fab, V domains shown, Tested as Fab expressed in E. coli; also called APFF S84N) VH: QVQLVQSGAEVKKPGASVKVSCKASGYTFTSYYMHWVRQAPGQGLEWMGIINPSGGSTSYAQKFQGRVTMTRDTSTSTVYMELNSLRSEDTAVYYCAREEYAPFSAEYFQFWGQGTLVTVSS VL: not shown | 497 | 0.47 | – |

Other lines, results leading:

| Signal/Blank [10 nM Fab] [1] | ELISA (Signal-Noise) [2] | Signal/Noise [3] | Binder |
| --- | --- | --- | --- |
| 1080 | 0.4 | – | Fab VH1-46_IGHD6-6*01_IGHJ1*01 S102A/S103P/S104F/H111F S84T & L6_IGKJ1*01 (Fab, V domains shown, Tested as Fab expressed in E. coli; also called APFF S84T) VH: QVQLVQSGAEVKKPGASVKVSCKASGYTFTSYYMHWVRQAPGQGLEWMGIINPSGGSTSYAQKFQGRVTMTRDTSTSTVYMELTSLRSEDTAVYYCAREEYAPFSAEYFQFWGQGTLVTVSS VL: not shown |
| – | – | 0.9 | Fab VH1-46_IGHD6-6*01_IGHJ1*01 E100A & L6_IGKJ1*01 (Fab, V domains shown, Heavy chain CDR3 alanine mutant of the parental Fab; Fab format as the parent (CH1 with His6/Flag tags, kappa CL)) VH: QVQLVQSGAEVKKPGASVKVSCKASGYTFTSYYMHWVRQAPGQGLEWMGIINPSGGSTSYAQKFQGRVTMTRDTSTSTVYMELSSLRSEDTAVYYCAREAYSSSSAEYFQHWGQGTLVTVSS VL: not shown |
| – | – | 1.3 | Fab VH1-46_IGHD6-6*01_IGHJ1*01 S104A & L6_IGKJ1*01 (Fab, V domains shown, Heavy chain CDR3 alanine mutant of the parental Fab; Fab format as the parent (CH1 with His6/Flag tags, kappa CL)) VH: QVQLVQSGAEVKKPGASVKVSCKASGYTFTSYYMHWVRQAPGQGLEWMGIINPSGGSTSYAQKFQGRVTMTRDTSTSTVYMELSSLRSEDTAVYYCAREEYSSASAEYFQHWGQGTLVTVSS VL: not shown |
| 457 | 0.41 | – | Fab VH1-46_IGHD6-6*01_IGHJ1*01 S102A/S103P/S104F/H111F S84H & L6_IGKJ1*01 (Fab, V domains shown, Tested as Fab expressed in E. coli; also called APFF S84H) VH: QVQLVQSGAEVKKPGASVKVSCKASGYTFTSYYMHWVRQAPGQGLEWMGIINPSGGSTSYAQKFQGRVTMTRDTSTSTVYMELHSLRSEDTAVYYCAREEYAPFSAEYFQFWGQGTLVTVSS VL: not shown |
| – | – | 3.5 | Fab VH1-46_IGHD6-6*01_IGHJ1*01 S103A & L6_IGKJ1*01 (Fab, V domains shown, Heavy chain CDR3 alanine mutant of the parental Fab; Fab format as the parent (CH1 with His6/Flag tags, kappa CL)) VH: QVQLVQSGAEVKKPGASVKVSCKASGYTFTSYYMHWVRQAPGQGLEWMGIINPSGGSTSYAQKFQGRVTMTRDTSTSTVYMELSSLRSEDTAVYYCAREEYSASSAEYFQHWGQGTLVTVSS VL: not shown |
